Source: patent US8778303B2, “99mTc-labeled 19 amino acid containing peptide for use as phosphatidylethanolamine binding molecular probe and radiopharmaceutical” (The Medical College of Wisconsin, Inc., priority 2008, dated 2014)
Entries after “also recorded” stand apart in the source; their conditions may differ.

Experiments:
[1] = Biodistribution studies in healthy rats; type: in vivo, rat
Protocol: Biodistribution studies. […] Dynamic whole-body biodistribution profile was acquired using an in-house gamma camera (GE XRT). The anesthetized animal was continuously imaged at an energy window of 140±15 keV, field of view 22.5×22.5 cm, matrix 128×128, at 1 min per image for up to 60 min post-injection.
For quantitative biodistribution, at each designated time point after intravenous injection of radiolabeled Duramycin, including 0, 1, 5, 15, 30, and 60 min, a group of 4 rats were sacrificed. Various tissues were dissected, rinsed in saline, weighed, and the level of radioactivity was determined using direct gamma counting (140±15 keV).

[2] = Protocol: Blood half-life and pharmacokinetic studies. The animal protocol used was approved by the Institutional Animal Care and Use Committee under the NIH guideline. Healthy Sprague Dawley rats were injected with radiolabeled Duramycin (2.3 nmole) via the tail vein. At each designated time point, including 0, 1, 5, 15, 30, and 60 min, 50 μl of blood was withdrawn from a pre-installed femoral artery catheter and collected in heparinized tubes. The blood sample was centrifuged at 5000 g, and the radioactivity in the cellular and plasma fractions was measured separately by direct gamma counting using an energy window of 140±15 keV. The data output included total blood activity with time, and the activity associated with blood cells and the plasma, respectively. The blood half-life measurement was conducted in triplets. To analyze the pharmacokinetics of the radiopharmaceutical, 10 μl of the plasma or urine sample was analyzed using HPLC method 2 which involves the physical separation of molecules based upon the matrix-solvent interactions.
stroke = settings: in vivo
breast tumor = test: Imaging in chemical-induced breast cancer model with doxorubicin treatment; type: in vivo, rat
Description: In an experimental example using a chemical-induced breast cancer model in rats, breast tumors were allowed to grow to palpable size prior to doxorubicin treatment (see arrow, FIG. 9B).

CC(C)=NNc1ccc(C(=O)NCCCC[C@@H]2NC(=O)[C@@H](N)CS[C@@H](C)[C@H]3NC(=O)[C@H](CC(N)=O)NC(=O)CNC(=O)[C@H]([C@@H](O)C(=O)O)NC(=O)[C@@H]4CSC[C@@H](NC(=O)[C@H](CCC(N)=O)NC2=O)C(=O)N[C@H]2CS[C@@H](C)[C@@H](NC(=O)[C@H](Cc5ccccc5)NC(=O)[C@@H]5CCCN5C(=O)CNC(=O)[C@H](Cc5ccccc5)NC(=O)[C@H](CNCCCC[C@@H](C(=O)O)NC3=O)NC2=O)C(=O)N[C@@H](Cc2ccccc2)C(=O)N[C@@H](C(C)C)C(=O)N4)cn1 [^99mTc-HYNIC-Duramycin, metal not drawn]
tissue uptake at 1 h ([1]; Sprague Dawley, rat, 2.3 nmole, total radioactivity, Bone, healthy rats, intravenous, 60 min post-injection (n=4)): 0.04 ± 0.01 %ID/g
tissue uptake at 1 h ([1]; Sprague Dawley, rat, 2.3 nmole, total radioactivity, Brain, healthy rats, intravenous, 60 min post-injection (n=4)): 0.01 ± 0.01 %ID/g
tissue uptake at 1 h ([1]; Sprague Dawley, rat, 2.3 nmole, total radioactivity, Colon, healthy rats, intravenous, 60 min post-injection (n=4)): 0.11 ± 0.01 %ID/g
tissue uptake at 1 h ([1]; Sprague Dawley, rat, 2.3 nmole, total radioactivity, Fat, healthy rats, intravenous, 60 min post-injection (n=4)): 0.06 ± 0.06 %ID/g
tissue uptake at 1 h ([1]; Sprague Dawley, rat, 2.3 nmole, total radioactivity, Heart, healthy rats, intravenous, 60 min post-injection (n=4)): 0.21 ± 0.16 %ID/g
tissue uptake at 1 h ([1]; Sprague Dawley, rat, 2.3 nmole, total radioactivity, Kidney, healthy rats, intravenous, 60 min post-injection (n=4)): 2.32 ± 0.48 %ID/g
tissue uptake at 1 h ([1]; Sprague Dawley, rat, 2.3 nmole, total radioactivity, Liver, healthy rats, intravenous, 60 min post-injection (n=4)): 0.28 ± 0.01 %ID/g
tissue uptake at 1 h ([1]; Sprague Dawley, rat, 2.3 nmole, total radioactivity, Lung, healthy rats, intravenous, 60 min post-injection (n=4)): 0.12 ± 0.05 %ID/g
tissue uptake at 1 h ([1]; Sprague Dawley, rat, 2.3 nmole, total radioactivity, Muscle, healthy rats, intravenous, 60 min post-injection (n=4)): 0.03 ± 0.01 %ID/g
tissue uptake at 1 h ([1]; Sprague Dawley, rat, 2.3 nmole, total radioactivity, Pancreas, healthy rats, intravenous, 60 min post-injection (n=4)): 0.05 ± 0.01 %ID/g
tissue uptake at 1 h ([1]; Sprague Dawley, rat, 2.3 nmole, total radioactivity, Skin, healthy rats, intravenous, 60 min post-injection (n=4)): 0.01 ± 0.01 %ID/g
tissue uptake at 1 h ([1]; Sprague Dawley, rat, 2.3 nmole, total radioactivity, Small intestine, healthy rats, intravenous, 60 min post-injection (n=4)): 0.37 ± 0.07 %ID/g
tissue uptake at 1 h ([1]; Sprague Dawley, rat, 2.3 nmole, total radioactivity, Spleen, healthy rats, intravenous, 60 min post-injection (n=4)): 0.1 ± 0.02 %ID/g
tissue uptake at 1 h ([1]; Sprague Dawley, rat, 2.3 nmole, total radioactivity, Stomach, healthy rats, intravenous, 60 min post-injection (n=4)): 0.11 ± 0.01 %ID/g
tissue uptake at 1 h ([1]; Sprague Dawley, rat, 2.3 nmole, total radioactivity, Thymus, healthy rats, intravenous, 60 min post-injection (n=4)): 0.06 ± 0.02 %ID/g
tissue uptake at 1 h ([1]; Sprague Dawley, rat, 2.3 nmole, total radioactivity, Thyroid, healthy rats, intravenous, 60 min post-injection (n=4)): 0.08 ± 0.03 %ID/g
excreta dose per gram or mL at 1 h ([1]; Sprague Dawley, rat, 2.3 nmole, total radioactivity, Urine, healthy rats, intravenous, 60 min post-injection (n=4), read-out: Uptake): 22.1 ± 13.2 %ID/g
tissue uptake at 1 h ([1]; Sprague Dawley, rat, whole blood, 2.3 nmole, total radioactivity, Blood, healthy rats, intravenous, 60 min post-injection (n=4)): 0.33 ± 0.11 %ID/g
signs of toxicity or other adverse effects ([1]; at the current dosage tested, rats): no signs of toxicity or other adverse effects were observed
brain uptake ([1]; healthy rats): low
route of clearance ([1]; healthy rats): renal excretion is the predominant route of clearance
uptake in the hepatic and gastrointestinal regions ([1]; healthy rats): low uptake; also recorded: very low
radio-HPLC analysis of plasma samples ([2]; after intravenous injection): majority of the injected radioactivity remained as the parent
radioactivity in the blood associated with the plasma fraction ([2]; all time points): greater than 95%
uptake in brain, rat stroke model (stroke): Focal uptake of radioactivity is colocalized with regions of stroke
uptake in treated breast tumor (breast tumor; after a single cycle of doxorubicin): elevated
cardiac uptake after doxorubicin (breast tumor; rat, in vivo): also elevated
